Holding throughout (assay): SEC-MALS; purified recombinant tropomyosin, neutral pH (pH 7.4), constant temperature of 25°C; molar mass from the peaks
In general terms: In gel filtration, larger molecules generally elute earlier.

In series [1] the target is Der p 10 (house dust mite tropomyosin) (Dermatophagoides pteronyssinus).
Series [2] concerns the target Pen m 1 (black tiger shrimp tropomyosin) (Penaeus monodon).
Series [3] deals with the molecule itself.

In general, stoichiometry N refers to the number of molecules, sites or subunits per partner or assembly. With “Der p 10 (house dust mite tropomyosin) (natural protein)”, in series [1], the stoichiometry N stood at 2.
As to “Pen m 1 (black tiger shrimp tropomyosin) (natural protein)”, in series [2], the stoichiometry N amounted to 2.

B1: Ani s 3 (Anisakis tropomyosin) (natural protein, Anisakis simplex, UniProt Q9NAS5 1-284, looked up)
chain: MDAIKKKMQAMKIEKDNALDRADAAEEKVRQMTDKLERIEEELRDTQKKMMQTENDLDKAQEDLSTANSNLEEKEKKVQEAEAEVAALNRRMTLLEEELERAEERLKLATAKLEEATHTADESERVRKVMENRSFQDEERANTVESQLKEAQMLAEEADRKYDEVARKLTMVEADLERAEERAETGENKIVELEEELRVVGNNLKSLEVSEEKALQREDSYEEQIRTVSARLKEAETRAEFAERSVQKLQKEVDRLEDELVHEKERYKSISEELDQTFQELSGY
notes: also called fish parasite tropomyosin
With B1, the “stoichiometry N” value in series [3] came out at 2.

B2: Bla g 7 (German cockroach tropomyosin) (natural protein, Blattella germanica, UniProt Q9NG56 1-284, looked up)
chain: MDAIKKKMQAMKLEKDNAMDRALLCEQQARDANIRAEKAEEEARSLQKKIQQIENDLDQTMEQLMQVNAKLDEKDKALQNAESEVAALNRRIQLLEEDLERSEERLATATAKLAEASQAADESERARKILESKGLADEERMDALENQLKEARFMAEEADKKYDEVARKLAMVEADLERAEERAETGESKIVELEEELRVVGNNLKSLEVSEEKANLREEEYKQQIKTLNTRLKEAEARAEFAERSVQKLQKEVDRLEDELVHEKEKYKYICDDLDMTFTELIGN
Take B2: in series [3], the “stoichiometry N” value was determined as 2.

The record behind these values is paper PMC7687109, “Effect of structural stability on endolysosomal degradation and T‐cell reactivity of major shrimp allergen tropomyosin” (Allergy, 2020).
